# Measurements as given in the supplement of paper PMC10567573.
# ± gives the standard deviation.
# Assay: protein stability index of a GFP-peptide fusion (GPS, HEK-293T) (PSI 1-6); higher = more stable
# Conditions: c terminus: a fixed tail appended
# 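Also: 24-mer peptide tiles fused after GFP, lentivirally expressed, FACS-sorted into six equal bins by GFP/DsRed ratio, decoded by Illumina sequencing, PSI is the read-weighted mean bin number.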
Sequence,protein stability index (treatment: DMSO),"protein stability index (treatment: MLN4924 1 uM, 8 h)"
LAVLDWNQRAMDLYKALGAQDLTE [SAT2],2.41 ± 0.24,2.42 ± 0.19
LDSEKRTPLHVAAFLGDAEIIELL [ANKRD44],2.95 ± 0.12,3.03 ± 0.32
LEAAEALLTLRNSAQAPPDSISLH [DMRTC1],4.42 ± 0.18,4.27 ± 0.25
LEEELRQLKEEMARHLREYQELLN [PRPH],3.27 ± 0.11,3.62 ± 0.32
LEGEEENELTLNEKNFFPEYNYDW [CHGB],4.21 ± 0.37,4.46 ± 0.28
LEISGIIMSRVNAYQQGVGYQMLG [PHTF1],2.81 ± 0.35,2.63 ± 0.51
LEKPPAPNQAMVVAAAGDACPPQH [TBC1D10A],5.21 ± 0.21,5.2 ± 0.33
LEPPTMRKKRLLDRKVLLKSDSPT [GOLPH3L],4.38 ± 0.21,4.54 ± 0.17
LESRQRSLEQANRSLQLRIQELEL [TFE3],3.97 ± 0.27,3.98 ± 0.4
LETFGHLLSIGPELPKPEVISQLE [ZNF8],3.94 ± 0.38,3.93 ± 0.19
LEVERQENEQRRLFIQKEEQLQQI [MNAT1],4.6 ± 0.36,4.64 ± 0.17
LFAPTLIYRDSYPRNPTVRWGYVA [SOAT1],2.44 ± 0.55,2.06 ± 0.35
LFLRCSLRHKDEEEEDDDDIHITA [DRICH1],3.03 ± 0.35,3.23 ± 0.28
LFQILSERQDMYQCLVEGCTEKFK [ZNF511],2.24 ± 0.35,2.54 ± 0.6
LGCALLAAHAVVLCALPVHVAVEH [SOAT2],3.43 ± 0.35,3.09 ± 0.51
LGIHEDSTNRRRLSELLRYHTSQS [HSP90AB1],3.5 ± 0.22,3.71 ± 0.24
LGKLIPRHQSIFKSNGFFHGISIP [CDKL4],2.17 ± 0.052,2.23 ± 0.41
LGKMLIGLAGYLSGYDGTFLFQKP [POMT2],2.65 ± 0.86,2.45 ± 0.79
LGLDNRLFGHPGLDMELGPSQGQE [ADAMTSL2],4.84 ± 0.21,–
LGQQQRDMRRDEEGSLCAAHLPKA [FBF1],4.97 ± 0.35,5.11 ± 0.16
LGRGLVGGQEEASQEAGLPAGAGP [SEPHS2],5.23 ± 0.47,4.75 ± 0.65
LGRSHDTVQEAATSRRARASKKTA [MFSD9],5.2 ± 0.21,5.31 ± 0.16
LGSSAASTALERPSFLSQTGHGVS [FCHO1],4.28 ± 0.45,4.2 ± 0.24

Sequence,protein stability index (treatment: DMSO),"protein stability index (treatment: MLN4924 1 uM, 8 h)"
LGWNSTERSLRLQARYHDTPYKPP [MYORG],2.88 ± 0.3,3.2 ± 0.22
LGYAVSTFAMVKGYFFPTSARDCK [DHCR7],2.09 ± 0.11,2.09 ± 0.13
LHEEEHVLLMAICIVSPDRPGVQD [VDR],2.44 ± 0.29,2.24 ± 0.25
LIALANRFCLPHLVALAEQHAVQE [RHOBTB1],3.16 ± 0.47,3.33 ± 0.47
LIKTIETRNGEVVTESQKEQRSEL [PRPH],4.91 ± 0.52,4.67 ± 0.53
LINTSDTVQHGAVYSLEPRLCGGK [SDE2],3.97 ± 0.43,3.97 ± 0.33
LIPQPLDSEEDEKMEEDIKEEEEK [PCMTD1],5.66 ± 0.23,5.67 ± 0.22
LIQNGGEIDCVDKDGNTPLHVAAR [ANKRD44],4.32 ± 0.087,4.53 ± 0.16
LIYGSMEMFPAAQQLYRHGKAYRF [JAGN1],2.28 ± 0.36,2.21 ± 0.093
LKGARLTVEQGCQILDSLSYMRNE [FBXO39],2.68 ± 0.35,2.85 ± 0.38
LKPFFMKEVGSHFDDFVTNLIEKS [SOAT1],2.48 ± 0.32,2.88 ± 0.13
LKVKCLNNLAASQLKLDHYRAALR [FKBP8],2.28 ± 0.31,2.19 ± 0.47
LLADVKGARAALNEIESRHRELLR [STX11],3.03 ± 0.23,3.3 ± 0.41
LLDALSPEQLVLTLLEAEPPHVLI [ESR2],2.55 ± 0.57,2.08 ± 0.18
LLDELMGRDRNLAPDEKRSNVRWD [LUC7L3],3.59 ± 0.21,3.64 ± 0.19
LLEDARRKGMPFAQWDGPTVVSWL [PPFIA4],2.11 ± 0.15,2.01 ± 0.33
LLEKVPCTLEQDHFKKQTIYRFLK [FEM1C],2.38 ± 0.83,2.31 ± 0.23
LLFSLTQFSVVSVVAYLALAALSA [RTN1],3.4 ± 0.54,3.24 ± 0.058
LLKPHSYGRFIRWLNKEKGIFKIE [SPDEF],2.49 ± 0.66,2.4 ± 0.46
LLKRMESLKLKSSHHSKHKAPSKL [DLC1],3.03 ± 0.36,3.1 ± 0.51
LLLASGLVITDFFGHLINGAIAVF [PTGFR],3.29 ± 0.72,3.19 ± 0.86
LLLLYFMQVIAIVLYLMMPIVNIS [PHTF1],3.15 ± 0.42,3.06 ± 0.52
